Test: soluble on expression in E. coli; label from the status in PepcDB or PDB records

Row | Sequence | soluble on expression in E. coli
1 | MNRGVITISESGTVSMPTYTVWMTLQEIADMYNVFGCYVRKAVKAIFKDGILKEQGVRRHVRKNDRISYDVYSLELVIAVAFRIDSIESRAFREFIMQSVIGRQTSRTKLVCIFTENAMA | not soluble
2 | MGSDKIHHHHHHMIPFNKPHLTGKEVHYIYEAVHSGKISGNGIFTKKCHDFFTSTYGFTKTLMTSSCTDALEMSSLLMDIQPGDEIILPTFTFVSTANAFVLRGAKLVFVDSLATEPNMNVELIEGLITSKTKAIVVVHYAGVACDMDVVMNIAKKYQLFVVEDAAQAISSYYKDKPLGGIGDFGAFSFHETKNIISGEGGLLAINNSDYCNRSEIIWEKGTNRSAFFRGETDKYGWVDVGSSFLPSEIISAFLYAQLENVAEIQAKRLEIWNTYYNTLSPLAEHKKLRLPYIPAYATNNAHMFYVICNSLEERTALIDYLKAHNILAVFHYLSLHKSPYFSDKHDGRSMDYADQYAETLVRLPLFYDLSTEDQEFICTKILSFYSEKI | not soluble
3 | SLDGILDHTMIRVEDLDASLEWYTTHLNYEEKGRWEAETFTNVYLGPEDAGDAAARLELTYNHDGRSYTMGDAWGHIAVRVPDVEAAYDELMQSGVEDYRPPAENPGYAFVTDPDGHEVEIVERDYGTKWSLDHTMLRVEDVNAALGYWIRTFEYEPTGRWEADSFANYFVSPQDAPAEAMDIELTYNYDGRSYTMGDAWGHVAVRCADLQSAWETLQEREAPDYRDPESCDNRYAFTKAPDGHEIEILPTEEG | not soluble
4 | MKVVVIDAGHGAKDSGAVGISRKNYEKTFNLAMALKVESILKQNPKLEVVLTRSDDTFLELKQRVKVAENLKANVFVSIHANSSGSSASNGTETYYQRSASKAFANVMHKYFAPATGLTDRGIRYGNFHVIRETTMPAVLLEVGYLSNAKEEATLFDEDFQNRVAQGIADGITEYLDVK | soluble
5 | MGSDKIHHHHHHMEQVDMGPAQAPPLFSGQLDARTRAASVDLHGCNVDYWVYEPVSVTAETRTMLVVHGFRGDHHGLLRVADQLPDMRLIMPDLPGFGSSDAFPDGGHSVRRYGQFISDFMAALGLGPDTVLLGHSFGSIVASHFAAANPGAVFPLILINPIAAPALEGPKGVMTKLAVIYYEASARLPRALGLYLLRSRLIVRVMSMAMAKTRDKQLLQFIHGQHNAYFSAFANRDSLLESFKASVGSNVSEVAPDLSLPVLLIAGEKDEIAMLPDQHKLQALLPDGTLEVIPGVGHLIHYETPQPAAGFIRRFLKDHPA | not soluble
6 | MGSDKIHHHHHHMDFHTGKWLCKQYNLNSFTKVSLLHGGENQTYMFESDKNKFVVRQYREGRYTAEQIEAEIHWLIAIQKQMLVPEVVVNKDGDWVTPVMKDEGSIQYFVVFRFINGNEIIEPKDKDYEKLGSFMRMFHEKTNGVLKSVPQTWRGYERPIYSEKKMIHEPLQCLLNTSFLSYEDKNKCLRIAERIQELTNSIQLREKQFVHGDMHFGNILVDKEDWYLLDFDECGFGYKEFDIGVPRLHLIASGQLEDAWGNFMMGYGENISESAIRLGAASRIFYMAGKIPLRLDIEPIKKNPDHFIRRYIQYAEEELCGETIV | not soluble
7 | MKNIAAAGVLERIRRLAPQASVPPYRTVEEWREWQLAEGRKRSEEINRQNHQLRVEKILNRSGIQPLHSKCSFANYQVQNDGQKYALSQAKSIADELMTGCTNFVFSGKTGTGKNHLAAAMGNRLMAKGRSVIIVTVSDVMSVLHDSYDNGKSGEKFLQELCSVDLLVLDEIGVQRETKNEQVVLHQIIDRRTASLCSVGMLTNLNHAAMSTLLGERIMDRMTMNGGRWVTFNWDSWRPNVSNMRVVK | soluble
8 | MGSDKIHHHHHHMMQIYLVGGAVRDQLLGLPIKDRDWLVVGSTAEELLSQGYQQVGKDFPVFLNPNTREEYALARTERKSGTGYTGFICDFNPDITLEQDLMRRDLTINAIAQDMAGQYHDPYNGIADLKKGILRHISPAFAEDPLRVLRVARFAARYHQLGFKIAPNTLALMKKIANNGELRQLSPERVWQETEKALHEQDPQVYFAILQKIDALKVLCPEISVFNSDSIQYRSDMTDFVHAMPILKQTTLLTEKTDYHKSAVRFAALCHDVGKALSTANIPPYSHDNKITSIAYLRNVCQRFKVPNYVQELAELTCQYHSHIHHALALHTKTILTLFNKLDVWRKPKRFEELMLVCLADSLTQTEMNYTDYPQYKFLLCLYQAALAVDVQQIISEGFQHKAIRVELDRRREIAIQIKKQQFIEQNLT | not soluble
9 | MNIMEIEKTNRMNALFEFYAALLTDKQMNYIELYYADDYSLAEIADEFGVSRQAVYDNIKRTEKILETYEMKLHMYSDYVVRSEIFDDMIAHYPHDEYLQEKISILTSIDNRE | soluble
10 | MPDGGFKVEVEALRRYRDTLEDFKSQADTFSDLVDRADVGDESWGLVGLATKSSYTEALGQLRDLLDRMKQGLTNTGEKFTKAAELYASNDDQGAIQLGNYEIEVDKVDEVRPAGA | not soluble
11 | PIGKATDNMYSYLALLQDDPTIQIVNQAQKAYVEKVAPSIAAMAGLPILSAGAPFKAGGRKNDPTGYTEVNKGKLTFRNAADLYLYPNTLVVVKATGEQLKEWLECSAGMFKQIDPTSDKPQSLIDWEGFRTYNFDVIDGVNYEYDLTKPARYDGECKLINPESHRVVNLTYQGKPVDPKAEFLIATNNYRAYGNKFPGTGDKHIVYASPDESRQILADYIKATSEKEGSVNPNADKNWRFVPI | not soluble
12 | MDMNVEIFAGIVNNPLTKKALRNLSGSCKTCGDKRIKIAIDYALGYRSDACWKCRAAAKVVKKVIEAGGRAFNVDMNEIREKFRDAYWRKGLASVIKGIAHFGVRKPFVPGAPFQVVWDITYSCNLRCKHCYATAGKPLQDELTTDEALETIDKLDRLGVTIIAFSGGEPLVRRDIFELTRYAAEKGIYVAIATNGTLITEEIAKRMKENGVGYVQISLDGMKETHEAFRGIRGCFDKTVEGIRNAVKTGLFVNVSMTVTRYNYHEVPKVVELCEKLGVNWFMHYNFIPTGRGREIVEADITPEQREELLKWLYEKNYSSNISLLSTAPQFARVALQCQGEIVPTHFYNVNAGERLKELAEFIGGCGAGRFYFAIKANGDIQPCVFFPLKVGNVREDDLEELWLHNHVFEDLRDKDILEGCGSCGYRYVCGGCRARAYNYFGDYTKPDPGCVNNRRWWERISKIEVRA | not soluble
13 | SDFANLSSTNKELSPQYNWVACGILEGGLKAAGVLEEGQYNRELAEAIAAKGEGFWTTQFPQIGDWNEDQAAALADRAQTCGLVKADTYLSELSSNFSS | soluble
14 | DAGGGVGKELVDLKIIWNKTKHDVKVPLDSTGSELKQKIHSITGLPPAMQKVMYKGLVPEDKTLREIKVTSGAKIMVVGSTI | soluble
15 | LKDFSFDLNVNLAKNVSNVEKLADGVDYIYFNGDSNFPINVGARPGHKLGEIYAKTLYKRDEQGNIIINKENGLPMTTTDADERLAKPIGNIQPNLLMSVSPSFTYKGITLSAIFDMKFGGDIISISEMNATGSGMAKRTMNRGESDNFMMIFPGVYEDGTPNTQKISASNYYGAQNAEDFIYDASFIKLKELAIGYTFPKSMLKKTPINSLNVSFVARNLAYLLKHTPGTSPEGGYDTTMFSQAIDFMAVPYTRTFGFSVNLGF | not soluble
16 | GSDSLIRDLSGLSQKMVQTLLEQIRSNYDDYLTFSNTYTDEENETLINLEKTQSDLQKFMTQLDHLIKDDISNTQEIIKDVLEYLKKLDEIYGSLRNHSQLTEALSLGKRLSKSLHEMCGIEPLEEEICSGLIEQLYKLITASRRILESCADSNSPYIHHLRNDYQDLLQEFQISLKILTEKCLENPSSLQNLSLTLVSIIKTA | soluble
17 | MAGQADNRAPYAKIAAHYTELITSGQLQPGSLLPSIKNLAEEWNVSTATAEKALRKLRNEGLVRGIHGIGTEVLDQPAPMSSGAQRQDRGRRTGSSWGAGERSDSHKAAVVPAPAEVAHALDIEPGSDVIRRSRVYRDRHGIVAHSTSWIPARFGRLIPQLAASERLTGGTSLQLIAQVTGHPITHRVDSASARLLTPEYTRLLELDPENPPAEPVVVMTAKFVDSEGTVVEYGVDLGGPGRTWRTESEVTQ | soluble
18 | EMRNLGGGEILHACPQESLDKPLPCIVFYHGFTSSKLVYSYFAVALAEAGFRVIMPDAPEHGARYQGDEAGRMQRFWPILQQNFREFPALREAIIAEGWLEGERLAVAGASMGGMTALGIMTHHPELNSVACLMGSGYFRSLSQTLFPSPDFDVDSLNEWDVSHQLASLARRPLLLWHGDADDVVPPEETFRLEQALRQGDLAARLTCVWQKGVRHRITPEALATTVAFFQQHL | not soluble
19 | MGFTTVAKEEKVTKVAEVFHSVAAKYDIMNDLMSGGIHRLWKRFTIDCSGARPGQRILDLGGGTGDLTAKFSRIVGDQGHVVLADINNSMLNVGRDKLRDNGIVGNVHYVQANAEELPFPDDYFDVITISFCLRNVTDKDKALRSMFRVLKPGGRLLVLEFSKPVLEPLSKVYDAYSFHLLPKMGELVANDAESYRYLAESIRMHPDQETLEGMMQDAGFENTKYYNLTGGIVALHRGLEHHHHHH | not soluble
20 | MGSDKIHHHHHHMTTWVLLRGLMRDQRHWNGFDQRLRQKGLRVLTPDLPGNGTLSTEASPLKIADYAHAVWLQLDEQVQEGETIYLLGLSMGGMLALEMARQRPWLIRHVFVLNSSAANLSAWYQRFNPLNALKAFFLRARGKALHPIESTIVRLTSFRHRLDCGLIAEWSEFRRQSSPTIRNAWRQLWAAFQYQCPLTVEVPISVLCGDRDALVSMASSKALALHFHTDLIVLAYCGHDAAIDAPAKLAHYLLAIVAPTKLQAEVQEDDEPAHAQYAHTQYSCNDLLEEEMAFNEAIFSVWDEKALSTLHSKSSAMNSAKTVNS | not soluble
21 | MGSDKIHHHHHHMYSFVARQPILNQHRQTVAYELLFRMDITNKFPDVSPEFATAQLISDQFLTNPLARSVVEQPYYINFPHQMLINGQAEVLPQEKVVIEILENAAPDNDLFAAVKKLKRKGFKIALDDFSMDSEWDRFLPYIDVIKFDLTLSTFGDIENFIKRTKQRKLIYLAEKVETHEQYMQSKKLGISLFQGYFFSRPEMIKSKKLVNKSSNTIRLLREVNKPEINYAAIEELVCADLSLYYKLMRHITNIKYNTRFGITATSMSFRSMAMLLGQRELKRFVSLISITNSNENKPSELYRTSLIRARFFELLYASFNVKEDTTEAFLCGLLSLLDAVLDSPMPLLLSQIALSEKINQSLLENTGELAVYLTLIAKYEQQEWEELERLLIQLGIDEENFFTMIMEATQWADEIL | not soluble
22 | MAHHHHHHMCAKLRDSANISSLRKERDCWQREVARVSDAVRVLCGGANICSNVESPTEWAESLCEAVQDGQAALVCLSLELWTGGTWAGIQGFKEQLTAYVGACASAAKEAAERVEALEVEVLRLKESEASLSARCENTEAHARNVEEDLKRASTQAERVSELEQETSDLRTRCNLLRKELQRQREAMQRDRPQPHETANSETAASPITENASAVQSVLLAAAGCVSERDVATFVGSRGSQDGSLKLSKVGAELLIKENAELKRENAHNNGVIAQYIRELEGYKANERVQLSIEYLRNIVQQYLCAAEDLRPKMIPAICTVLEFSSKQKEDVQTANPRCPRFH | soluble
23 | KQVYAFDIQKQALEKTQERLHQADLTNAQLILQGHETLDQFVIKAKAGIFNLGYLPAADKSVITRPQTTIEALEKLCGLLVKGGRIAIMIYYGHEGGDLERDAVLDFVIQLNQQEYTAAIYRTLNQVNNPPFLVMIEKLERYRH | not soluble
